Drawing on PMC8310280, this text covers Kd for 4 substances.

The target in this data set is Shiftless (SHFL) WT (human) (UniProt Q9NUL5). Nature of the data set: EMSA. (In EMSA bound probe runs differently from free probe, usually more slowly.)
Shiftless (SHFL) WT (human), sequence (Q9NUL5 whole entry): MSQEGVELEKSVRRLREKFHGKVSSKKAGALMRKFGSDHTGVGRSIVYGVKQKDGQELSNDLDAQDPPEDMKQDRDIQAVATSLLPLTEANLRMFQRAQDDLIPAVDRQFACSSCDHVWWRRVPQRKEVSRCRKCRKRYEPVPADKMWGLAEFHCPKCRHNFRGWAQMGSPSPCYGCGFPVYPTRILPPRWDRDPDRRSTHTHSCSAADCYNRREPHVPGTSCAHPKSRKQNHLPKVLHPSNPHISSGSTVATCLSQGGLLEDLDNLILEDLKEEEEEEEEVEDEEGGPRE
On to IBVmax (wild-type pseudoknot), for which the Kd (usually the equilibrium constant for the complex coming apart) worked out at 500 nM.
For the substance control RNA (SARS-CoV-2 antigenome), the equilibrium dissociation constant (Kd) came to 500 nM.
Next, “GACCCUAGAUGACUAGGGAGGUCAGGGUCAGGAGCCCCCCCCUGAACCCAGGAUAACCCUCAAAGUCGGGGGGCAACCCGUCAC [MuLV RT signal]”: 500 nM; “GACCCUAGAUGACUAGGGAGGUCAGGGACACGAGCCCCCCCCUGAACCCAGGAUAACCCUCAAAGUCGGGGGGCAACCCGUCAC [MuLV S1]”: 500 nM.
